Measurements: the supplement of paper PMC9170038

Tested on: MS2 coat protein
Test: apparent KD of MS2 coat protein; designed switch direction (-1 OFF switch, 1 ON switch): -1; higher = weaker reporter binding
Outline: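 Designed RNA switches sharing common flanks were transcribed on Illumina chips by stalled E. coli RNA polymerase. They were titrated with SNAP-549-labelled MS2 coat protein, from 0.7 or 1.5 nM doubling to 3 µM, in Tris-HCl pH 7.5 buffer with KCl, MgCl2, BSA, DTT, tRNA and Tween-20. Titrations ran without input, with 200 uM small-molecule ligand, or with an oligonucleotide input. The apparent KD of each design is the median over its clusters, after curve-fitting of normalised cluster fluorescence.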

[1] = input ligand: microRNA oligo, concentration not stated
[2] = Eterna round: R95, input ligand: FMN 200 uM
[3] = Eterna round: R95, input ligand: microRNA oligo, concentration not stated
[4] = Eterna round: R95, input ligand: none

Sequence	apparent KD of MS2 coat protein (input ligand: FMN 200 uM)	apparent KD of MS2 coat protein (input ligand: none)	apparent KD of MS2 coat protein [1]	apparent KD of MS2 coat protein [3]	further results
ACAACUGUAGGAUAUACUUUCUGGGUAAGCCAUUAUACUGGACAUGAGGAUCACCCAUGUAGAAGGACAGAAAG [Eternabot (Original) Solution 36] (Eterna round: R97, puzzle: Exclusion 2)	29.6 nM	35.1 nM			
GGUUGGCGAGGAUAUACAUGAGGAUCACCCAUGUGAGAGAAAAAAGUGAGUAAGAAAAGUAGAAGGCGCUGACG [salish99-ex3-33] (Eterna round: R96, puzzle: Exclusion 3)	401 nM	47.3 nM	51 nM		
GAUAAGGUAGGAUAUACGAAUAAAAAGGGUAGAAGAAGAACACAUGAGGAUCACCCAUGUAGAAGGACCAAUAG [Mat - Exclusion 2 - Mod of my Tesla design - D24] (puzzle: Exclusion 2)				19.7 nM	apparent KD of MS2 coat protein [2]: 37.9 nM; apparent KD of MS2 coat protein [4]: 16.5 nM
UUACGACAUGAGGAUCACCCAUGUUAGGAUAUGUGGCGAGAGCGCUAGCCUCGGGCCAACAGAAGGAAUAGGGC [Eternabot (L2) Solution 35] (Eterna round: R97, puzzle: Exclusion 1)	53.4 nM	58.5 nM			
AAUAACAGAGGAUAUACUAUUUUAUGUGUUUAUUGUUUUAAACAUGAGGAUCACCCAUGUAGAAGGCUGAAUGA [JMF 59] (puzzle: Exclusion 2)				34.4 nM	
UUCAUGUGAGGAUAUAGUACUCUUUCUAUUAUUAUUGAGUAUUAGAAGGCACAUGAGGAUCACCCAUGUAGUAC [Ex4 - 3 - 41] (puzzle: Exclusion 4)				28.1 nM	
CUAGCGGAUGUAGGAUAUCGGACUGUUUCAGUCUGAGAAGGACAUGAGGAUCACCCAUGUAUUGCUGCGUGAGUAGCACGCUAG [JL ENG1 3.97] (Eterna round: R96, puzzle: Exclusion NG 1)			17.4 nM		
AGCAGACGAGGAUAUAGAUUUGAUAACAUGAGGAUCACCCAUGUGAUCGAUAGAUCAGAUUUAGAAGGCGUCUGCU [E5/8-A1] (Eterna round: R97, puzzle: Exclusion 5)	412 nM	525 nM			
GAAAUACAUGAGGAUCACCCAUGUAAGGAUAUGCUAGCGGUCGGCUGACUGACUGCUAGCAGAAGGUACAUGAU [Mat - Mod of JL D81] (puzzle: Exclusion 1)				67.5 nM	
UCACGGGACUAAGGAUAUACAUGAACUAUUAUUGUAGAAGGUAGAAUGUUAGCUUAUACACUAAACAUGAGGAUCACCCAUGUA [JR_ExcNG1_Sub095] (Eterna round: R96, puzzle: Exclusion NG 1)			26.9 nM		
UCCAGGCGAGGAUAUACAAAGAUUUUUUCGUUUAGUCUCGAACAUGAGGAUCACCCAUGUAGAAGGUGCUUCAC [JR_Ex2_Sub011] (Eterna round: R97, puzzle: Exclusion 2)	46.6 nM	48.3 nM			
CUCAGGGUGCAGGAUAUCAUGGGAUAUCCCACCUGAGAAGGGCGAACAUGAGGAUCACCCAUGUGAGUGGGAGA [Eternabot (L2) Solution 85] (Eterna round: R97, puzzle: Exclusion 6)	488 nM	441 nM			
CAGUCGAUAAGAUCAAUUAAUUAACAUGAGGAUCACCCAUGUGAGGAUAUCAGCUCGUUUAGAGCUGAGAAGGCACAACGACUG [ExNG3/17-A2] (Eterna round: R96, puzzle: Exclusion NG 3)	305 nM	37.9 nM	32.4 nM		
AAGGGUACUUUCGGAACGACAUGAGGAUCACCCAUGUAUACUGAGGAUAUCCACUACUAAGGACGGGAGAAGGCAGUGUACUGU [Ex NG3 #79] (Eterna round: R96, puzzle: Exclusion NG 3)	26.1 nM	16.6 nM	12.6 nM		
UGUUGUUGAUAGGAUAUACUUGUAGGAGUAGGAGUAGAAGGAUCUACAUGAGGAUCACCCAUGUAGGAGUGAGA [JR_E6_Sub003] (puzzle: Exclusion 6)				16.6 nM	apparent KD of MS2 coat protein [2]: 18.2 nM; apparent KD of MS2 coat protein [4]: 15.7 nM
